According to publication PMC11316058:

Target: Hsp90α (N-terminally His-tagged, human) (human) (UniProt P07900)
Assay: ITC; Ahsa1 or Ahsa1^Δ20 (200-300 µM) in the syringe injected into Hsp90-α (30 µM) in the cell; 25 °C; 30 mM Tris pH 7.5, 20 mM KCl, 10% glycerol, 1 mM TCEP; two-site-binding model; three independent experiments

Row | Substance | Kd
1 | Ahsa1^Δ20 (C-terminal 6xHis) (from UniProt O95433 21-338) (domain or fragment) | 3200 nM
2 | full-length Ahsa1 (C-terminal 6xHis) (from UniProt O95433 1-338) (natural protein) | 1730 nM
